Source: paper PMC7279886, “A non-linear system patterns Rab5 GTPase on the membrane” (eLife, 2020)

Assays:
Conditions in all cases: both partners purified
Rabex5 = molecular target: T1, Rabex5 (Bos taurus, UniProt O18973 1-492); assay: HDX-MS; Rabex5/Rabaptin5 premixed with Rab5:GDP, ternary complex diluted into deuterated buffer without GTPγS, 1, 5 and 15 min, 22 °C
T1 construct: Rabex5, Bos taurus, 57 kDa Vps9 domain containing GEF for Rab5; The His tag served for capture in the co-purification and was then cut with 3C protease; also called Rabex5-6xHis
T1 sequence (O18973 whole entry, the tested form may be a part): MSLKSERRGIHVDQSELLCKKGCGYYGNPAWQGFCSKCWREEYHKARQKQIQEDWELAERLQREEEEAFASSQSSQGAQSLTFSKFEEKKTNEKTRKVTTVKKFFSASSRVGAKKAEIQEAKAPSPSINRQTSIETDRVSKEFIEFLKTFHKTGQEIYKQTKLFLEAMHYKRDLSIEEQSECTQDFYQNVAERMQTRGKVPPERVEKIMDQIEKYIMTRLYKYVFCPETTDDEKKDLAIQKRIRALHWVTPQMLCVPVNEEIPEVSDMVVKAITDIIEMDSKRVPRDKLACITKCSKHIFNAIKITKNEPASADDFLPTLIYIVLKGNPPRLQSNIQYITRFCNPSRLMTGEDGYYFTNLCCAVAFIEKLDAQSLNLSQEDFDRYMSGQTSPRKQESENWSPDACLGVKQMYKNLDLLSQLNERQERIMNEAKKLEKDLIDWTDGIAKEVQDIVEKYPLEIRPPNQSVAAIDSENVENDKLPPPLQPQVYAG

Rabex5/Rabaptin5 complex = molecular target: T2, Rabex5/Rabaptin5 complex (Bos taurus | human, UniProt O18973 1-492; Q15276 1-862); assay: as above
T2 construct: Rabex5, Bos taurus, 57 kDa Vps9 domain containing GEF for Rab5; Rabaptin5, human, 99 kDa; also called GEF/effector complex; not shown: GST, N-terminal, cleaved; copies: 2 + 2
T2 sequence (O18973 whole entry, the tested form may be a part, one chain of several): as the sequence (O18973 whole entry, the tested form may be a part) above

Rabaptin5 = molecular target: T3, Rabaptin5 (human, UniProt Q15276 1-862); assay: HDX-MS; Rabex5/Rabaptin5 premixed with Rab5:GDP, ternary complex diluted into deuterated buffer with GTPγS, 1, 5 and 15 min, 22 °C; uptake compared with the sample without GTPγS
T3 construct: Rabaptin5, human, 99 kDa; GST served for capture in the co-purification and was then cut from the resin with GST-3C protease; also called GST-Rabaptin5; not shown: GST, N-terminal, cleaved
T3 sequence (looked up): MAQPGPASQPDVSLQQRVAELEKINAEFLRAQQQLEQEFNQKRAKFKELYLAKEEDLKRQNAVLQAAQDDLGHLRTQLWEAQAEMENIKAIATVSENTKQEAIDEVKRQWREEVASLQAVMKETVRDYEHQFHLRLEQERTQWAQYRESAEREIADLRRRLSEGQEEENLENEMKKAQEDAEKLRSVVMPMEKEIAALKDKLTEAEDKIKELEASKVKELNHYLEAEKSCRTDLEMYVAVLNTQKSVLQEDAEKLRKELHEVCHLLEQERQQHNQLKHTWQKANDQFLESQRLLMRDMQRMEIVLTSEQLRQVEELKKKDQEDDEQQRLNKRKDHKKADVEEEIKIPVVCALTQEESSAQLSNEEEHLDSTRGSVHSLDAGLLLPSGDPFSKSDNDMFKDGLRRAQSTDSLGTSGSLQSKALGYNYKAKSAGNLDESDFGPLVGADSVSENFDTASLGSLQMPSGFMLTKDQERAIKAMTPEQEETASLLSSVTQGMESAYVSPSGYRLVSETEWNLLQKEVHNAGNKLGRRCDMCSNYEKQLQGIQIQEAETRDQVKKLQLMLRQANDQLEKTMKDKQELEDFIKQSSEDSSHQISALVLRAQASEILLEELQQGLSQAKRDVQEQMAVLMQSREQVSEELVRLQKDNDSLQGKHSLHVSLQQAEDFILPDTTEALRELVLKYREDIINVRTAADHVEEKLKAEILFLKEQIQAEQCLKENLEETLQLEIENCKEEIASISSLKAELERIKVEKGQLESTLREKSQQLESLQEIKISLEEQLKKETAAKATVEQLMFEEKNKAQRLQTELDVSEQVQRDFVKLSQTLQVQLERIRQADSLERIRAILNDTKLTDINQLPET

Measured: binding result

B1: Rab5 (natural protein, human, UniProt P20339 1-215, looked up)
chain: MASRGATRPNGPNTGNKICQFKLVLLGESAVGKSSLVLRFVKGQFHEFQESTIGAAFLTQTVCLDDTTVKFEIWDTAGQERYHSLAPMYYRGAQAAIVVYDITNEESFARAKNWVKELQRQASPNIVIALSGNKADLANKRAVDFQEAQSYADDNSLLFMETSAKTSMNVNEIFMAIAKKLPKNEPQNPGANSARGRGVDLTEPTQPTRNQCCSN
notes: Rab5a, human; Rab5 as used in the HDX-MS experiment, printed there without GFP; also called Rab5a; Rab5:GDP; source: Sf9, purified (Ni-NTA, SEC)
binds: Rabex5 | Rabex5/Rabaptin5 complex | Rabaptin5
